Results as given in PMC5587807.

Legend:
[1] = tested on: DNA polymerase beta (Pol β) WT (human); experiment: EMSA; conditions: EMSA: 50 nM substrate, 50 mM Hepes pH 7.5, 37 mM KCl, 5 mM MgCl2, 0.5 mM EDTA, 100 ug/ml BSA, on ice 10 min, gel at 4 C, FA: 50 mM Hepes pH 7.5, 20 mM KCl, 2 mM
[2] = tested on: Pol β V303C, 5-iodoacetamidofluorescein labeled; experiment: fluorescence anisotropy; conditions: 5'-phosphorylated tetrahydrofuran at 5' end of nick; biotin at 5' ends; EMSA: 50 nM substrate, 50 mM Hepes pH 7.5, 37 mM KCl, 5 mM MgCl2, 0.5 mM EDTA, 100 ug/ml BSA, on ice 10 min, gel at 4 C; FA: 50 mM Hepes pH 7.5, 20 mM KCl, 2 mM
[3] = 5'-phosphorylated tetrahydrofuran at 5' end of nick

For NCP-5'-P-THF-O (-35), the Kd [1, 3] was 360 nM.
For NCP-gI (-49), the Kd ([1]; 5'-phosphate and 3'-OH at gap) was 170 nM.
With UND-DNA the Kd [1] was 50 nM.
DNA-gO (-35) showed a Kd ([1]; 5'-phosphate and 3'-OH at gap) of 20 nM.
NCP-5'-P-THF-O (-35), 5'-biotin was tested, and the Kd [2] was 280 nM.
Work on DNA-5'-P-THF-O (-35) yielded a Kd [1, 3] of 20 nM.
In the case of UND NCP, the Kd [1] is reported as 740 nM.
In the case of DNA-gI (-49), the Kd ([1]; 5'-phosphate and 3'-OH at gap) is reported as 30 nM.
Work on NCP-gO (-35) yielded a Kd ([1]; 5'-phosphate and 3'-OH at gap) of 460 nM.
